The data set can be described thus: yeast display, Sf9 membrane polyspecificity reagent, FACS + sequencing; frameworks hold sequencing errors. The method, boiled down: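 Galactose induction of a Saccharomyces cerevisiae BJ5465 synthetic nanobody display library ran 36–48 hours. The cells were then stained for 1 hour at 4 °C with 10% biotinylated, detergent-solubilized Sf9 membrane reagent, pulled down on streptavidin microbeads and FACS-sorted into low and high (top ~1%) gates on expression and reagent-binding fluorescence. Labels for polyreactivity follow the gate of origin.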
As for “QVELVESGGGLVQAGGSLRLSCAASGFTFRYYAMGWYRQAPGKERELVAAINASGGRTYYADSVKGRFTISRDNAKNTVYLQMNSLKPEDTAVYYCAARSIRQHYGMDYWGQGTQVTVSS”, the “polyreactivity (PSR sort gate)” value is “high polyreactivity”.
In the case of “QVELVESGGGLVQAGGSRRLSCAASGSTFYAYAMGWYRQAPGKERELVAAISASGDSTYYADFVKGRFTISRDNAKNTVYLQMNSLTPEDTAVYYCAAEVYYRPQDYYTYPDYYWGQGTQVTVSS” it was “high polyreactivity”.
Regarding “QVHFVESGGGLVQAGGSLRLSSAASGRTFQYNAMGWYRQAPGKERELVARITWSGDSTYYADSVKGRFTISRDNAKNSVYLQMNSLKPEDTAVYYCNAGRRWRRTAYDYWGQGTQVTVSS”, the “polyreactivity (PSR sort gate)” value was “high polyreactivity”.
To “QVHHEETGGGIVQAGGSLRLSCAASGRIFDYIAMGWYRQAPGKERELVAAISQSGGSTYYADSVKGRFTISRDNAKNTVYLQMNSLKPEDTAVYYCAAFISRSRNEYWGQGTLVTVSS” belongs “high polyreactivity”; to “QVHHVDSGGGLVQAGGTLRLSIPASGRTFQYYTMGWYRQPPGKERELVAAIRRGGSTYYADSVKGRFSISRDNAKNTVYLQLNILKPEDTAVYYCADLYAYSLTARGMEYWGQGTQVTVSS”, “high polyreactivity”.
To “QVHHVESAGRLVQAGGILRLICPASGFTFGHYVMGWYRQEPGKERELLAAITLSGGGTYYADSVKGRFTISRDNAKNTGYLQMNSLKPQDTAVYYCAAVGGDHAKITYSRYKVDYWGQGTQVTVSS” belongs “low polyreactivity”.
To “QVHHVESGGVLVQARVSLRLSCAASGIIIAYYAVGWYGQAPGKESELVAAITSGGSTSYADSVKGRFTISRDNAKNTVYLQMISLKPEDTAVYYCNTDPSGYESGYWGQGTQVTVSS” belongs “low polyreactivity”; to “QVHIEDSGGGLLQAGGSLRLSCAATGRTFFYYAMGWYRQAPGKERELVAAISGRGGRTYYADSVKGRFTISRDNAINTVYLQMNSLKPEDTAVYFCGGDAGPLRYDYWGQGTQVTVSS”, “high polyreactivity”.
“QVHIVESGGGLVQAGGSLRLSCAASGINFGRNVMGWYRQPPGKERELVAAISWSGGRTYYADSVKGRFTISRDNAKNTVYFQIKSLITEDTAVYDCNARTGYYTGQYDYWGQGSQVTVSS”: the “polyreactivity (PSR sort gate)” value is recorded as “high polyreactivity”.
With “QVHLEDSGGGLVQAGVILRLSSPASGSIFVYNAMGWYRPAPGKERELVAAISSSGGSTYYADSVKGRFTISRDNAKNTVYLQMNSLKPEDTAVYYCAAEAVRKVPSYYSYAYYYWGQGTQVTVSS”, the “polyreactivity (PSR sort gate)” value was “high polyreactivity”.
To “QVHLEESGGGLVQAGGSLRLSCAASGFTFHNNVMGWYRQAPGKERELVATISKSGGSTYYADSVKGRFTISRDNAKNPVYLQMKSLKPEDTAVYYSARRYRDYRRYAYWGQGTQVTVSS” belongs “high polyreactivity”; to “QVHLEESGGGLVQAGGSLRLSCAASGRTFYANTMGWYRPAPGKERELVAGITSGGSTSYADSVKGRFTISRDNAKNTVYLQMNSLKPEDTAVYYCAAQFYRYTATGYYADGYWGQGTQVTVSS”, “low polyreactivity”.
To “QVHLGESGGGLVQAGGSLRLSCAASGSTFDRNVIGGYRQAPGKERELVAAISRVSSTNYADSVKGRFTISRDNAKNTVYLQMNSLKPEDTAVYYCAADRAGSIMNYWGQGTQVTVSS” belongs “low polyreactivity”; to “QVHLGETGGALVQAGGRLRLSCAASGITLGAYAMGWYRQAPGKERELVARIRIGGSTYYADSVKGRFTISRDYAKNTVFLQMNSLKPEDTAVYYCNALYRYLYRSGDYWGQGTQVTVSS”, “low polyreactivity”.
In the case of “QVHLLESGGGLVQAGGSLRLICAASGRILYPYALVWYRQAPGKETELVAAITFRGGNTYYADSVKARFTLSRDYAKNTVYLQMNSMKPEDTAVYFCAARKSPRSQVRGRSYYWGQGSQVTVSS” it was “high polyreactivity”.
In the case of “QVHLQDSGGGLVQAGGSLRLSCAASCYISDVNDMGWYRQAPGKEREFVAGIGYGGITNYADSVKGRFTISRDNAQNTVYQHMNSLKPKDTAVYNCAVHWGPDSGLYYWGQGTQVTVSS”, the “polyreactivity (PSR sort gate)” value is “high polyreactivity”.
In the case of “QVHLQDSGVGLVQAGGSLRLSCAASGSIFGSGSMGWFRQAPGKERELVATINNGSSTYYADSVKGRFTISRDNAKNTVYLQMNSLKPEDTAVYYCAVYLYRLTFFYYWGQGNQVTVSS” it was “high polyreactivity”.
“QVHLQESGGGLVKAGGSLRLSCAASGTISPLPAMCWYRQAPGKEREFVAGIDTGAITNYADSVKGRFTISRDNAKNTVYLQMNSLKPEDTAVYYCAFFPAAYDYYERYYTYWGQGTQVTVSC”: the “polyreactivity (PSR sort gate)” value is “low polyreactivity”.
In the case of “QVHLQESGGGLVQAGGSLRLSCAASGTIFRFRYMGWHRQAPGKERELVAGINGGTTTYYADSVIGRFTISRDNAKNTVYLQMNSLKPDDTAVYNCAAGASRLTYYDFWGQGTQVTVSS” it was “low polyreactivity”; in that of “QVHLQESGGGLVQAGGSLRMSCAASGTIFTEANMGWYRQAPGKERELVATIGLGSTTNYADSVKGRFTISRDNAKNTVYLQMNSLKPEETAVYYCAVVTVDPVGFVYWGQGSQVTVSS”, “low polyreactivity”.
For the sequence “QVHLVDSGGGLVQAGCSLPLSCAASGRTFLAYAMGWYRQEPGKERQLVAAISGSGGRSYYADSVKGRFTISRDNAMNTVYLQMNSLKPEDTAVYYCAANVVRWWGDGDYWGQGTQVTVSS”, the “polyreactivity (PSR sort gate)” value is on record as “high polyreactivity”.
In the case of “QVHLVDSGGGLVQAGGSLRLSCAASGYIFPYNAMGWYRQEPGKERELVATITGTGGSTYYADSVKGRFTISRDNAKITVYLQMNSLKPEDTAVFYCAADLSIRYDHEYGYWGQGTQLTVSS” it was “low polyreactivity”; in that of “QVHLVESAGGLLQAAASLRLSGDASGSIISSYAMGWYRQAPGKERQLVAAITRSGGSTYYADSVKGRFTISRDYAKKTVYLQMNSLNPEDTAVYYCAARSYVHVFVRMYYWGQGTQVTVSS”, “high polyreactivity”.
In the case of “QVHLVESAGGLVQAGGSLRLSCAASGLIFGTYAMGWYRPAPGKERELVATINSSGGSTYYADSVKGRFTISRDNAKNTVYLQINSLKPEDTAVYYCAADNWVNDGDYWGQGTQVTVLS” it was “low polyreactivity”.
In the case of “QVHLVESAGGLVQAGGSLRLSCAPSGSTFPLYVMGWYRQAPGKERELVAAIDWSGGSTYYADSVKGRFTISRDNAKNTVYLQMNRLKPEDSAVYYCNARYLRRGDYWGQGTQVTVSS” it was “low polyreactivity”; in that of “QVHLVESGAGLVHAGGRLRLSCAASGRIFFGYAMGWYRQAPGKERELVAGITSSTGRTYYADSVKGRFTISRDNAKNTVYLQMNSVKPEDTAVYYCAADTWYRYDYWGQGTQVTESS”, “low polyreactivity”; in that of “QVHLVESGGAIVQAGGSLRLSCAASGYIFDRNAMAWYRQAPGKERELVAAITKRGGITYYADSVKGRFTISRDNAKNTVYLQMNSLKAEDTAVYYCNALARSSRYDYWGKGTQVTVSS”, “low polyreactivity”.
For the sequence “QVHLVESGGALVQAGGSLRLSCAASGFTFHTYASRLYRQAPGKEREFVAAISYSGGNTYYADSVKGHFTISRDNAKKTVYLHMNSLKPEDTAVYYCAAQYYYRYYWGPGTQVTVSS”, the “polyreactivity (PSR sort gate)” value is given as “high polyreactivity”.
In the case of “QVHLVESGGCLVQAGGSLRLSCAASGFIFPTYAMGWYRQAPGKERELVATITTNAGGTHYADSVKGRFTISRDNAKNTVYLQMNCLKQEDTAVYYCAAKQYRPKQRKYWTRIYDYWGQGTQVTVSS” it was “low polyreactivity”.
In the case of “QVHLVESGGCLVQAGGSLRLSCAASGSTFPSYAMGWYRQAPGKERELVAAINSGGGTNYADSVKGRFTITRDNAKNTVYLQLNILKPEDSAVYYGAADVWKLYDYWGQGTQVTVSS” it was “low polyreactivity”.
For the sequence “QVHLVESGGGFVQAGGSLRLSCAASGSIFWLYAMGWYRHAPGKERELVAAISWSTGGTYYADSVKGRFTISRDNAKNTVYLQMNSLKPEDTAVYYCNADTYDQYNYWGQGTQVTVSS”, the “polyreactivity (PSR sort gate)” value is recorded as “low polyreactivity”.
To “QVHLVESGGGIVQAGGSLPLTCAAYGSIFNRYAMGWYRPAPGKERQLVAAISLTSGSTYYADYVKGRFTISRDNEKITVYLQMNSLKPEDTAVYYCATRRKVGPTQVGFYYRGGVDYWGQGTQVTVSS” belongs “high polyreactivity”.
To “QVHLVESGGGIVQAGLSLRLSCAASGRTFVVNAMGWYRQAPGKERELVAAISYSGGRTYYADSVKGRFTISRDIAKNTVYLKMNSLKPEDTAVYYCAAQSRYGGKFYYWGQGTQVTVSS” belongs “high polyreactivity”.
To “QVHLVESGGGLDQAGGSLRLICPASGLIFYRYAMGWYRQAPGKERELVAAITTNGARTYYADSVKGRFTISRDNAKNTVYLQMNSLIPEDTAVYYCAGYGAGKFWAEHNYWGQGTQVTVSS” belongs “high polyreactivity”; to “QVHLVESGGGLDQAGGSLRLSCAASGRTFKRYAMGWYRQAPGKETELVAAISWSGTSTYYADSVKGRFTISRDNAKNTVYLQMNSLKPEDTALYFCNTPHRSSSVRSYGYWGQGTQVTVSS”, “high polyreactivity”.
With “QVHLVESGGGLFQAGGSLRISCAASGRIFIGNAMGWYRPAPGKERELVAAISKRGGSTYYADSVKGRFTISRDYAKNTVYLQMNSLKPEDTAVYYCNKESLYREFDYWGQGTQVTVSS”, the “polyreactivity (PSR sort gate)” value is “low polyreactivity”.
To “QVHLVESGGGLGKAGGSLRLSSAASGRTFQYYTMGWYRQAPGKARELVAAIRRGGSTYYADSVKGRFTISRDNAKNTVYLQMYSLKPEDTAVYYCAALYAYSLTARGMEYWGQGTQVTVSS” belongs “high polyreactivity”.
In the case of “QVHLVESGGGLGQAGGSLRLSGAASGFIFGDYAMGWYRQAPGKERELVADINWTGGSTYYADSVKGRFTISRDNANNTVYLQMKSLKPEDTEVYYCDKDDYAFLITWVDYWGQGTQVTVSS” it was “low polyreactivity”; in that of “QVHLVESGGGLVEAGGSLRLSCAASGRIFQGYAMGWYRQAPGKERELVAAITRSGGSTYYADSVKGRFTISRDNAKNTVYLQMNSLKPEDTAVYYCAASHYGLLEYWGQGTQVTVSS”, “low polyreactivity”; in that of “QVHLVESGGGLVHAGGSLRLSCAASGRSFTFYDMGWYRQAPGKERELVAAITQDSGSSTYYADSVKGRFTISRDNAKNTVYLQMNSLKPEDTAVYYCNADYPGFSSQNDYWGQGTHVTVSS”, “low polyreactivity”.
To “QVHLVESGGGLVKAGGSLGLSCSPSGSTLSFNAMGWYRQAPGKERELVAGITYSGGSTYYADSVKGRFTISRDNAKNTFYLLMNSLKPEDTAVYYCNKASGVYYGHLDYWGQGTQVTVSS” belongs “low polyreactivity”.

The values are drawn from the nanobody polyreactivity screen of Harvey et al. (2022).
